Measurements: the supplement of paper PMC9112550, “Optimization of the antimicrobial peptide Bac7 by deep mutational scanning” (BMC Biology, 2022)

Test system: Escherichia coli TOP10
Assay: shrunken log2 fold change of peptide-encoding DNA abundance (4.5 h post-induction vs induction); higher = less antimicrobial activity (less host growth inhibition)
Conditions: time post-induction: 4.5 h; library: site-saturation at positions 5, 18, 19, 20
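Further: peptides expressed intracellularly from a pBAD plasmid library in pooled LB shake-flask culture, induced with 0.3% L-arabinose, DNA abundance read by NGS, three biological replicates, DESeq2 with apeglm shrinkage.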

Sequence | shrunken log2 fold change
RRIRDRPPRLPRPRPRPLYDPRP | -0.107
RRIRLRPPRLPRPRPRPYVVPRP | -0.481
RRIRNRPPRLPRPRPRPRITPRP | 0.0468
RRIRLRPPRLPRPRPRPYPIPRP | 0.107
RRIRQRPPRLPRPRPRPWLHPRP | 0.0098
RRIRGRPPRLPRPRPRPVFHPRP | 0.0913
RRIRIRPPRLPRPRPRPRCLPRP | -0.228
RRIRWRPPRLPRPRPRPEPDPRP | 0.901
RRIRERPPRLPRPRPRPIGRPRP | 0.0419
RRIRCRPPRLPRPRPRPSMMPRP | -0.307
RRIRLRPPRLPRPRPRPWLYPRP | -0.541
RRIRWRPPRLPRPRPRPCDKPRP | -0.217
RRIRWRPPRLPRPRPRPDLGPRP | -0.135
RRIRFRPPRLPRPRPRPLDWPRP | -0.119
RRIRGRPPRLPRPRPRPVPNPRP | 0.581
RRIRQRPPRLPRPRPRPCTHPRP | -0.502
RRIRPRPPRLPRPRPRPFIMPRP | -0.426
RRIRHRPPRLPRPRPRPAPSPRP | 0.709
RRIRRRPPRLPRPRPRPEKTPRP | 0.00726
RRIRERPPRLPRPRPRPEDLPRP | 0.0648
RRIRWRPPRLPRPRPRPTLRPRP | 0.0881
RRIRHRPPRLPRPRPRPFTIPRP | -0.0345
RRIRTRPPRLPRPRPRPTELPRP | -0.0329
RRIRTRPPRLPRPRPRPVICPRP | -0.157
RRIRMRPPRLPRPRPRPCWAPRP | 0.168

Sequence | shrunken log2 fold change
RRIRKRPPRLPRPRPRPYQCPRP | -0.0062
RRIRLRPPRLPRPRPRPASVPRP | -0.0571
RRIRCRPPRLPRPRPRPPVRPRP | 0.519
RRIRRRPPRLPRPRPRPLLNPRP | -0.00444
RRIRYRPPRLPRPRPRPGTNPRP | -0.163
RRIRNRPPRLPRPRPRPYSVPRP | -0.0155
RRIRQRPPRLPRPRPRPHSNPRP | -0.0311
RRIRMRPPRLPRPRPRPEYNPRP | 0.25
RRIRSRPPRLPRPRPRPQQEPRP | -0.0806
RRIRKRPPRLPRPRPRPKHWPRP | 0.162
RRIRSRPPRLPRPRPRPIKHPRP | -0.0703
RRIRQRPPRLPRPRPRPEPPPRP | 0.488
RRIRGRPPRLPRPRPRPTPVPRP | 1.07
RRIRRRPPRLPRPRPRPMPQPRP | 0.376
RRIRHRPPRLPRPRPRPFWLPRP | 0.137
RRIRMRPPRLPRPRPRPAYIPRP | 0.768
RRIRQRPPRLPRPRPRPTQWPRP | 0.571
RRIRCRPPRLPRPRPRPIWMPRP | -0.677
RRIRFRPPRLPRPRPRPLALPRP | -0.0762
RRIRARPPRLPRPRPRPHGNPRP | -0.0231
RRIRRRPPRLPRPRPRPRRSPRP | 0.516
RRIRWRPPRLPRPRPRPKQSPRP | 0.698
RRIRQRPPRLPRPRPRPDKGPRP | -0.285
RRIRFRPPRLPRPRPRPENMPRP | -0.158
RRIRTRPPRLPRPRPRPEYNPRP | -0.395

Sequence | shrunken log2 fold change
RRIRPRPPRLPRPRPRPQQLPRP | 0.0282
RRIRWRPPRLPRPRPRPWRAPRP | 0.223
RRIRPRPPRLPRPRPRPCQVPRP | -0.132
RRIRVRPPRLPRPRPRPLPLPRP | 0.0752
RRIRFRPPRLPRPRPRPESKPRP | 0.183
RRIRARPPRLPRPRPRPHQYPRP | -0.278
RRIRDRPPRLPRPRPRPSLNPRP | 0.138
RRIRFRPPRLPRPRPRPAEHPRP | 0.26
RRIRARPPRLPRPRPRPDIKPRP | -0.026
RRIRFRPPRLPRPRPRPHEKPRP | -0.0136
RRIRYRPPRLPRPRPRPDDLPRP | -0.0432
RRIRARPPRLPRPRPRPWEKPRP | -0.164
RRIRVRPPRLPRPRPRPVGSPRP | 0.289
RRIRERPPRLPRPRPRPPITPRP | -0.351
RRIRWRPPRLPRPRPRPFENPRP | -0.15
RRIRTRPPRLPRPRPRPKATPRP | -0.146
RRIRRRPPRLPRPRPRPTGQPRP | 0.675
RRIRRRPPRLPRPRPRPSTHPRP | 0.0934
RRIRERPPRLPRPRPRPVRYPRP | -0.582
RRIRWRPPRLPRPRPRPQNQPRP | -0.265
RRIRERPPRLPRPRPRPKGNPRP | 0.139
RRIRPRPPRLPRPRPRPRRDPRP | 0.302
RRIRDRPPRLPRPRPRPLVYPRP | -0.259
RRIRKRPPRLPRPRPRPWIAPRP | 0.285
RRIRCRPPRLPRPRPRPQLQPRP | 0.0481

Sequence | shrunken log2 fold change
RRIRLRPPRLPRPRPRPGWTPRP | 0.208
RRIRCRPPRLPRPRPRPVGVPRP | 0.299
RRIRSRPPRLPRPRPRPWWFPRP | 0.0202
RRIRWRPPRLPRPRPRPHTNPRP | -0.283
RRIRLRPPRLPRPRPRPQYDPRP | -0.155
RRIRRRPPRLPRPRPRPNFAPRP | 0.0508
RRIRARPPRLPRPRPRPGMPPRP | 0.128
RRIRHRPPRLPRPRPRPAINPRP | -0.221
RRIRHRPPRLPRPRPRPMFQPRP | -0.0107
RRIRYRPPRLPRPRPRPNDWPRP | -0.116
RRIRARPPRLPRPRPRPMASPRP | 0.543
RRIRIRPPRLPRPRPRPMTPPRP | 0.0425
RRIRRRPPRLPRPRPRPFMCPRP | 0.0373
RRIRDRPPRLPRPRPRPEKAPRP | 0.236
RRIRCRPPRLPRPRPRPRAPPRP | 0.87
RRIRTRPPRLPRPRPRPWQAPRP | 0.177
RRIRVRPPRLPRPRPRPQYPPRP | -0.101
RRIRKRPPRLPRPRPRPNEYPRP | 0.0869
RRIRVRPPRLPRPRPRPRLCPRP | 0.564
RRIRHRPPRLPRPRPRPFTLPRP | -0.312
RRIRRRPPRLPRPRPRPLIKPRP | -0.0254
RRIRYRPPRLPRPRPRPLNTPRP | -0.234
RRIRPRPPRLPRPRPRPGSVPRP | 0.0512
RRIRIRPPRLPRPRPRPNIEPRP | -0.0607
RRIRGRPPRLPRPRPRPTEPPRP | 0.716

Sequence | shrunken log2 fold change
RRIRTRPPRLPRPRPRPMWFPRP | 0.253
RRIRERPPRLPRPRPRPMIDPRP | -0.28
RRIRPRPPRLPRPRPRPCAEPRP | 0.27
RRIRMRPPRLPRPRPRPMWQPRP | 0.188
RRIRERPPRLPRPRPRPVLVPRP | -0.0151
RRIRPRPPRLPRPRPRPQHYPRP | -0.675
RRIRARPPRLPRPRPRPVQAPRP | 0.312
RRIRSRPPRLPRPRPRPYYVPRP | -0.274
RRIRNRPPRLPRPRPRPRGGPRP | 0.474
RRIRGRPPRLPRPRPRPGIKPRP | 0.429
RRIRSRPPRLPRPRPRPMQQPRP | 0.178
RRIRQRPPRLPRPRPRPYKKPRP | -0.0619
RRIRTRPPRLPRPRPRPEGCPRP | 0.214
RRIRARPPRLPRPRPRPIKYPRP | -0.38
RRIRHRPPRLPRPRPRPGWYPRP | -0.018
RRIRVRPPRLPRPRPRPCTAPRP | 0.172
RRIRSRPPRLPRPRPRPTPRPRP | 0.843
RRIRNRPPRLPRPRPRPAISPRP | -0.128
RRIRMRPPRLPRPRPRPNAYPRP | 0.311
RRIRVRPPRLPRPRPRPLHFPRP | -0.346
RRIRLRPPRLPRPRPRPMICPRP | 0.13
RRIRERPPRLPRPRPRPAYTPRP | -0.284
RRIRFRPPRLPRPRPRPLHCPRP | 0.0254
RRIRMRPPRLPRPRPRPWPEPRP | 0.735
RRIRPRPPRLPRPRPRPPLWPRP | 1.75

Sequence | shrunken log2 fold change
RRIRLRPPRLPRPRPRPLQAPRP | 0.128
RRIRSRPPRLPRPRPRPDYDPRP | -0.0947
RRIRYRPPRLPRPRPRPAMNPRP | -0.796
RRIRGRPPRLPRPRPRPGMHPRP | 0.589
RRIRERPPRLPRPRPRPSPQPRP | -0.0688
RRIRGRPPRLPRPRPRPLFCPRP | 0.367
RRIRERPPRLPRPRPRPCCSPRP | -0.52
RRIRQRPPRLPRPRPRPHIVPRP | -0.225
RRIRYRPPRLPRPRPRPFTAPRP | -0.311
RRIRFRPPRLPRPRPRPQYGPRP | -0.0328
RRIRQRPPRLPRPRPRPWPSPRP | 0.168
RRIRYRPPRLPRPRPRPFAAPRP | -0.508
RRIRDRPPRLPRPRPRPHHYPRP | -0.0954
RRIRMRPPRLPRPRPRPTKSPRP | 0.459
RRIRPRPPRLPRPRPRPIVRPRP | 0.029
RRIRHRPPRLPRPRPRPWWAPRP | -0.162
RRIRNRPPRLPRPRPRPAWAPRP | -0.0271
RRIRIRPPRLPRPRPRPPTLPRP | -0.431
RRIRSRPPRLPRPRPRPHCYPRP | -0.302
RRIRDRPPRLPRPRPRPHPLPRP | -0.216
RRIRDRPPRLPRPRPRPMQRPRP | -0.00663
RRIRGRPPRLPRPRPRPQTRPRP | 1.12
RRIRLRPPRLPRPRPRPTPTPRP | 0.786
RRIRERPPRLPRPRPRPWYIPRP | -0.0599
RRIRWRPPRLPRPRPRPPRAPRP | 0.782
